In publication PMC6215006:

Target: recombinant human macrophage-colony stimulating factor (human) (UniProt P09603)
UniProt P09603, sequence (P09603 36-181): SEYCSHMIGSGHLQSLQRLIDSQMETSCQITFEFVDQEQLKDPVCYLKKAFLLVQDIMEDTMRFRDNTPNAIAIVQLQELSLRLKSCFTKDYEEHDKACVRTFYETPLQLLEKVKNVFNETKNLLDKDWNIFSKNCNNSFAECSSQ

Inhibition of the differentiation of bone marrow-derived osteoclast precursors into osteoclasts with M-CSF (30 ng/mL) and RANKL (100 ng/mL), TRAP(+) MNCs; maximum inhibitory dose, 1 nM:
mouse syndecan-1 ectodomain from HEK293E cells (from UniProt P18828 23-255) (domain or fragment), mouse syndecan-2 ectodomain from HEK293E cells (from UniProt P43407 19-145) (domain or fragment), mouse syndecan-3 ectodomain from HEK293E cells (from UniProt Q64519 45-387) (domain or fragment), mouse syndecan-4 ectodomain from HEK293E cells (from UniProt O35988 24-145) (domain or fragment)
